By Kd is commonly meant the concentration at which binding is half-saturated. The low end stands for a tighter complex, the high end for a looser complex. By koff is commonly meant a measure of how fast the partners let go of each other. Lower therefore signals a long-lived complex. As a reminder, the kon is the second-order rate constant of association. Read a high kon as fast association.

Experiment [1] addresses T1, human CTLA4 (human).
T1 construct: also called hCTLA4; hCTLA4-His-BAP
Briefly: SPR Biacore T200, 37C, antibody captured, ATP 10 uM. (In general: SPR reads the build-up and loss of mass on a sensor chip optically.)

Experiment [2] has as its target T1, human CTLA4. Briefly: SPR Biacore T200, 37C, antibody captured, no ATP, steady state model.
For experiment [3], the target named is T1, human CTLA4. Briefly: SPR Biacore T200, 37C, antibody captured, ATP 1 uM.
Experiment [4] deals with T1, human CTLA4. Briefly: SPR Biacore T200, 37C, antibody captured, AMP 10 uM.
The target of experiment [5] is T1, human CTLA4. Briefly: SPR Biacore T200, 37C, antibody captured, ADP 10 uM.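 Further: antibodies held on a Protein G CM3 chip, human CTLA4 as analyte in ACES pH 7.4 buffer, rates from a global 1:1 Langmuir fit, Kd from rates or steady state.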
Procedure: Biacore T200 was used to measure the binding of the generated antibodies to human CTLA4. 20 mM ACES (pH 7.4), 150 mM NaCl, 2 mM MgCl₂, 0.05% Tween 20 with ATP added to the desired concentration was used as the running buffer, and the assay was performed at 37° C. First, Protein G (CALBIOCHEM) was immobilized onto a Series S Sensor Chip CM3 (GE Healthcare), and the antibodies were captured by interacting an antibody solution prepared in an ATP-free running buffer with the chip. Next, by interacting with a human CTLA4 solution prepared in a running buffer containing ATP to the desired concentration, or a human CTLA4 solution prepared in a running buffer containing no ATP, the binding ability of the antibody to human CTLA4 in the presence or absence of ATP was evaluated. Chips were regenerated with 25 mM NaOH and 10 mM Glycine-HCl (pH 1.5), and assay was performed by repeatedly capturing antibodies. The dissociation constant of each antibody for CTLA4 was calculated using Biacore T200 Evaluation Software 2.0. Specifically, the binding rate constant ka (L/mol/s) and the dissociation rate constant kd (1/s) were calculated by global fitting of the sensorgrams obtained by the measurement, using a 1:1 Langmuir binding model. The dissociation constant KD (mol/L) was calculated from those values. Alternatively, the dissociation constant KD (mol/L) was calculated by the steady state model. In addition, the binding amount of CTLA4 per unit amount of antibody was calculated by correcting the amount of CTLA4 bound as calculated from the sensorgram obtained by the assay with the amount of antibody captured onto the chip surface.
The binding ability of the generated variants to human CTLA4 in the presence of ADP or AMP was evaluated by Biacore T200 and compared with the binding ability in the presence of ATP.
The target of experiment [6] is T1, human CTLA4. Briefly: SPR Biacore T200, 37C, antibody captured, ATP 10 uM. This is another data set of the same source.

T1 sequence (chain, as listed by the source limits assumed): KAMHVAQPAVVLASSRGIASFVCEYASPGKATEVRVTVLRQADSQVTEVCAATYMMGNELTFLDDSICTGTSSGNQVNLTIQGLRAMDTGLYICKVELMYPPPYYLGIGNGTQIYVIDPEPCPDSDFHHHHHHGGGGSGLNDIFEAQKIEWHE

B1: 04H1637-G1m/04L1610-lam1 (antibody, human IgG1, lambda)
heavy: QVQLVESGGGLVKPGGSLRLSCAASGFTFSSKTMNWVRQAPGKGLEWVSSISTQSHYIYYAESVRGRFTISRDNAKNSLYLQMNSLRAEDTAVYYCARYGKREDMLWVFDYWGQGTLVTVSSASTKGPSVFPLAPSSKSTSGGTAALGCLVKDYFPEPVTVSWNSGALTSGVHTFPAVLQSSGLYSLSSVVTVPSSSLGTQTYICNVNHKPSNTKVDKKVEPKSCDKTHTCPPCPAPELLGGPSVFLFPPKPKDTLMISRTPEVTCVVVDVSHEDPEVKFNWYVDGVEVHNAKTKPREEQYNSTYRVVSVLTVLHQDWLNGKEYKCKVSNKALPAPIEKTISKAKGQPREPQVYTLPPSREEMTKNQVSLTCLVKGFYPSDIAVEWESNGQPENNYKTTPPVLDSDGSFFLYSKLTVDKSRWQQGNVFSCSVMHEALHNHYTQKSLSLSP
light: QSALTQPPSASGSPGQSVTISCEGPSTGVGDYNWVHWYQQHPGKAPKLMIYFTSKKPSGVPDRFSGSKSGNTASLTVSGLQAEDEADYYCQTYAAPLGPMFGGGTKLTVLGQPKAAPSVTLFPPSSEELQANKATLVCLISDFYPGAVTVAWKADSSPVKAGVETTTPSKQSNNKYAASSYLSLTPEQWKSHRSYSCQVTHEGSTVEKTVAPTECS
On to B1, for which the Kd is 18 nM in the experiment with human CTLA4 [1]; 3300 nM in the experiment with human CTLA4 [2]; 100 nM with human CTLA4 [3]; 70 nM in the experiment with human CTLA4 [4]; 22 nM in the experiment with human CTLA4 [5]; 15 nM with human CTLA4 [6]. The figures for the koff in the experiment with human CTLA4 [4], with human CTLA4 [5] and in the experiment with human CTLA4 [6] were 0.01 s⁻¹, 0.0035 s⁻¹ and 0.0019 s⁻¹, respectively. Also, the results for the kon in the experiment with human CTLA4 [4], with human CTLA4 [5] and with human CTLA4 [6] were 150000 M⁻¹ s⁻¹, 160000 M⁻¹ s⁻¹ and 120000 M⁻¹ s⁻¹, respectively.

B2: 04H1637-G1m/04L1581-lam1 (antibody, human IgG1, lambda, V domains shown)
VH: QVQLVESGGGLVKPGGSLRLSCAASGFTFSSKTMNWVRQAPGKGLEWVSSISTQSHYIYYAESVRGRFTISRDNAKNSLYLQMNSLRAEDTAVYYCARYGKREDMLWVFDYWGQGTLVTVSS
VL: QSALTQPPSASGSPGQSVTISCQGPSTGVGDYTWVHWYQQHPGKAPKLMIYFTIKKPKGVPDRFSGSKSGNTASLTVSGLQAEDEADYYCQTYAAPLGPMFGGGTKLTVLG
On to B2, for which the Kd is 17 nM with human CTLA4 [1], 3200 nM in the experiment with human CTLA4 [2] and 89 nM with human CTLA4 [3].

B3: 04H1637-G1m/04L1086-lam1 (antibody, human IgG1, lambda)
heavy: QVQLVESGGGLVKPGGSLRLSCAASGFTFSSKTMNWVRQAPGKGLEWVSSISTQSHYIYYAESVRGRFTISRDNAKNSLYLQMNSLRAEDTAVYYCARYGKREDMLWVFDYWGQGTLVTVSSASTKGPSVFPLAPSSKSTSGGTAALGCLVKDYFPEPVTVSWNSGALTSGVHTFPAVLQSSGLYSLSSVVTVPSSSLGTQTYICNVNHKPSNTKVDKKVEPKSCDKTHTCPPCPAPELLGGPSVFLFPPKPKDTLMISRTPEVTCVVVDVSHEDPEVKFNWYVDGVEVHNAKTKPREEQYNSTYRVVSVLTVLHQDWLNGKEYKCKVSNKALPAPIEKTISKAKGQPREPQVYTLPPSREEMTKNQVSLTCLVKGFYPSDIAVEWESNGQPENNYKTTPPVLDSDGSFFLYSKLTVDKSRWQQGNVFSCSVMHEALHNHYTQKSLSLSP
light: QSALTQPPSASGSPGQTVTISCDGPSTGVGDYNYVHWYQQHPGKAPKLMIYFTSKKPSGVPDRFSGSKSGNTASLTVSGLQAEDEADYFCQTYAAPLGPMFGGGTKLTVLGQPKAAPSVTLFPPSSEELQANKATLVCLISDFYPGAVTVAWKADSSPVKAGVETTTPSKQSNNKYAASSYLSLTPEQWKSHRSYSCQVTHEGSTVEKTVAPTECS
With B3, the Kd was 30 nM in the experiment with human CTLA4 [1], 5300 nM in the experiment with human CTLA4 [2] and 160 nM with human CTLA4 [3].

B4: 04H1643-G1m/04L1610-lam1 (antibody, human IgG1, lambda)
heavy: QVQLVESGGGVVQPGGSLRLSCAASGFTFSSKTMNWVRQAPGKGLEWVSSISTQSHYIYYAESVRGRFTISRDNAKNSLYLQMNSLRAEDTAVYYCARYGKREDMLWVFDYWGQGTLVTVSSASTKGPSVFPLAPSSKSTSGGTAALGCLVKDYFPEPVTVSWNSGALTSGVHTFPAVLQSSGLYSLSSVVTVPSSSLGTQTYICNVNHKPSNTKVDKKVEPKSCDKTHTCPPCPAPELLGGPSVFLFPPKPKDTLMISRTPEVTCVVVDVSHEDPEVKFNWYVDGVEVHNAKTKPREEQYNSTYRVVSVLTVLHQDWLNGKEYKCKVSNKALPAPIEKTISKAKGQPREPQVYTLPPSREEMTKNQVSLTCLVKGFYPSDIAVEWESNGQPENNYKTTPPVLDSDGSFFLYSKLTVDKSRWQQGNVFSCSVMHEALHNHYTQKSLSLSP
light: QSALTQPPSASGSPGQSVTISCEGPSTGVGDYNWVHWYQQHPGKAPKLMIYFTSKKPSGVPDRFSGSKSGNTASLTVSGLQAEDEADYYCQTYAAPLGPMFGGGTKLTVLGQPKAAPSVTLFPPSSEELQANKATLVCLISDFYPGAVTVAWKADSSPVKAGVETTTPSKQSNNKYAASSYLSLTPEQWKSHRSYSCQVTHEGSTVEKTVAPTECS
Regarding B4, the Kd in the experiment with human CTLA4 [1] worked out at 14 nM; with human CTLA4 [2] it was 2800 nM; with human CTLA4 [3] it was 89 nM.

B5: 04H1637-G1m/04L1594-lam1 (antibody, human IgG1, lambda, V domains shown)
VH: QVQLVESGGGLVKPGGSLRLSCAASGFTFSSKTMNWVRQAPGKGLEWVSSISTQSHYIYYAESVRGRFTISRDNAKNSLYLQMNSLRAEDTAVYYCARYGKREDMLWVFDYWGQGTLVTVSS
VL: QSALTQPPSASGSPGQSVTISCQGPSTGVGDYNWVHWYQQHPGKAPKLMIYFTSKKPKGVPDRFSGSKSGNTASLTVSGLQAEDEADYYCQTYAAPLGPMFGGGTKLTVLG
As for B5, the Kd in the experiment with human CTLA4 [1] amounted to 28 nM; with human CTLA4 [2] it was 4300 nM; with human CTLA4 [3], 140 nM.

B6: 04H1654-G1m/04L1606-lam1 (antibody, human IgG1, lambda, V domains shown)
VH: QVQLVESGGGVVQPGGSLRLSCAASGFTFSSKTMNWVRQAPGKGLEWVSSISTQSHYIYYARSVRGRFTISRDNAKNSLYLQMNSLRAEDTAVYYCARYGKREDMLWVFDYWGQGTLVTVSS
VL: QSALTQPPSASGSPGQSVTISCQGPSTGVGDYNWVHWYQQHPGKAPKLMIYFTSKKPSGVPDRFSGSKSGNTASLTVSGLQAEDEADYYCQTYAAPLGPMFGGGTKLTVLG
Consider B6, for which the Kd with human CTLA4 [1] amounted to 25 nM; with human CTLA4 [2], 6800 nM; with human CTLA4 [3], 140 nM; with human CTLA4 [4], 110 nM; in the experiment with human CTLA4 [5], 35 nM; with human CTLA4 [6] it was 21 nM. Besides, the figures for the off-rate constant (koff) with human CTLA4 [4], with human CTLA4 [5] and with human CTLA4 [6] were 0.009 s⁻¹, 0.0028 s⁻¹ and 0.0013 s⁻¹, respectively. The results for the kon with human CTLA4 [4], with human CTLA4 [5] and with human CTLA4 [6] were 81000 M⁻¹ s⁻¹, 80000 M⁻¹ s⁻¹ and 65000 M⁻¹ s⁻¹, respectively.

B7: 04H1389v373-G1m/04L1086-lam1 (antibody, human IgG1, lambda)
heavy: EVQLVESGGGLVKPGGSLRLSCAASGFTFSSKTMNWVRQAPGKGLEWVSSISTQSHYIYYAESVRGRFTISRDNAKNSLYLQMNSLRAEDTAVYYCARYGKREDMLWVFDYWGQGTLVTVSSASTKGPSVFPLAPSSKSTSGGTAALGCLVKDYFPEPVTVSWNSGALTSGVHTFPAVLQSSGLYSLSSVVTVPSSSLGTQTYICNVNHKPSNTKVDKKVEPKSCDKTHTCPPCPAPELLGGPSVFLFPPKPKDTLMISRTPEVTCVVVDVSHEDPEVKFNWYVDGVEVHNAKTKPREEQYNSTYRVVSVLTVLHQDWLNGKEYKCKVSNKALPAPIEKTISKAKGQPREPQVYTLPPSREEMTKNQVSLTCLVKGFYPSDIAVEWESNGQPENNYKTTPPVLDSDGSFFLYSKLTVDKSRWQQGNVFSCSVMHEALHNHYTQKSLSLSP
light: QSALTQPPSASGSPGQTVTISCDGPSTGVGDYNYVHWYQQHPGKAPKLMIYFTSKKPSGVPDRFSGSKSGNTASLTVSGLQAEDEADYFCQTYAAPLGPMFGGGTKLTVLGQPKAAPSVTLFPPSSEELQANKATLVCLISDFYPGAVTVAWKADSSPVKAGVETTTPSKQSNNKYAASSYLSLTPEQWKSHRSYSCQVTHEGSTVEKTVAPTECS
In the case of B7, the figures for the Kd with human CTLA4 [1], in the experiment with human CTLA4 [2] and with human CTLA4 [3] were 28 nM, 5300 nM and 140 nM, respectively.

B8: 04H1656-G1m/04L1606-lam1 (antibody, human IgG1, lambda, V domains shown)
VH: QVQLVESGGGVVQPGGSLRLSCAASGFTFSSKTMNWVRQAPGKGLEWVSSISTQSHYIYYAESVRGRFTISRDNAKNSLYLQMNSLRAEDTAVYYCARYGAREDMLWVFDYWGQGTLVTVSS
VL: QSALTQPPSASGSPGQSVTISCQGPSTGVGDYNWVHWYQQHPGKAPKLMIYFTSKKPSGVPDRFSGSKSGNTASLTVSGLQAEDEADYYCQTYAAPLGPMFGGGTKLTVLG
Turning to B8, the Kd came out at 19 nM in the experiment with human CTLA4 [1]; 2300 nM in the experiment with human CTLA4 [2]; 95 nM in the experiment with human CTLA4 [3]; 100 nM in the experiment with human CTLA4 [4]; 30 nM with human CTLA4 [5]; 19 nM with human CTLA4 [6]. The values for the koff with human CTLA4 [4], with human CTLA4 [5] and with human CTLA4 [6] were 0.016 s⁻¹, 0.0048 s⁻¹ and 0.0022 s⁻¹, respectively. Also, the results for the kon with human CTLA4 [4], with human CTLA4 [5] and in the experiment with human CTLA4 [6] were 160000 M⁻¹ s⁻¹, 160000 M⁻¹ s⁻¹ and 120000 M⁻¹ s⁻¹, respectively.

The values are drawn from patent publication US20260022175A1 (Chugai, published 2026).
